Measured values published in patent US20150216961A1 (MEDICAGO, published 2015).

Target: T1, VP2 from Rotavirus A WA strain (Rotavirus A WA strain, UniProt P11231 1-890)
T1 construct: Expressed in N. benthamiana from construct 1710 and purified as part of rotavirus-like particles; also called RVA(WA) VP2; VP2(opt)
T1 sequence: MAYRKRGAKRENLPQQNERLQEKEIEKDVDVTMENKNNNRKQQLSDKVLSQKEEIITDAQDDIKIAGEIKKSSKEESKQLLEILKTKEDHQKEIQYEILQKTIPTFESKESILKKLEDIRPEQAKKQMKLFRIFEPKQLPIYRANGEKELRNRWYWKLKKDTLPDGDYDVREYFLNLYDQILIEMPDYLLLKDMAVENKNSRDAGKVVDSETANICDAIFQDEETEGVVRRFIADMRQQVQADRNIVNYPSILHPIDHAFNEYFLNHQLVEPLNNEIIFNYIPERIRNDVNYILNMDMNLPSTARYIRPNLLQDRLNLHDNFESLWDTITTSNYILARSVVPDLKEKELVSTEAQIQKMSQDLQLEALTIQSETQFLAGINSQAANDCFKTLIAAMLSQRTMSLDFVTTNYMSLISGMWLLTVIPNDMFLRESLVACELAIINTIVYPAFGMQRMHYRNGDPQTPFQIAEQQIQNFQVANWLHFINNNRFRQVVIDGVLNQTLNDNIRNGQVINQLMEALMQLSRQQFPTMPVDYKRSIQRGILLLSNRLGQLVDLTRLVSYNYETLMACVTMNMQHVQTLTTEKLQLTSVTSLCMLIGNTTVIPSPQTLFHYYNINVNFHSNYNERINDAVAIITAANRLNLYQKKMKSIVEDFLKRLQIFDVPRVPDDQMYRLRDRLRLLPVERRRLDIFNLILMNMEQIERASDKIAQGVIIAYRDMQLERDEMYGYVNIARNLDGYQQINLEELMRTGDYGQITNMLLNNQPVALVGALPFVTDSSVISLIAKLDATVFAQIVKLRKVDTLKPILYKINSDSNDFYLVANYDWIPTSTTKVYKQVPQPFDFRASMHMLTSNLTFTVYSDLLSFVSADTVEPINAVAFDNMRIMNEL
Assay: co-expression in N. benthamiana, iodixanol gradient, cryo-electron microscopy

B1: VP6 from Rotavirus A WA strain (other)
chain: MEVLYSLSKTLKDARDKIVEGTLYSNVSDLIQQFNQMIVTMNGNDFQTGGIGNLPVRNWTFDFGLLGTTLLNLDANYVENARTIIEYFIDFIDNVCMDEMARESQRNGVAPQSEALRKLAGIKFKRINFDNSSEYIENWNLQNRRQRTGFVFHKPNIFPYSASFTLNRSQPMHDNLMGTMWLNAGSEIQVAGFDYSCAINAPANIQQFEHIVQLRRALTTATITLLPDAERFSFPRVINSADGATTWFFNPVILRPNNVEVEFLLNGQIINTYQARFGTIIARNFDAIRLLFQLMRPPNMTPAVNALFPQAQPFQHHATVGLTLRIESAVCESVLADANETLLANVTAVRQEYAIPVGPVFPPGMNWTELITNYSPSREDNLQRVFTVASIRSMLIK
notes: Expressed in N. benthamiana from construct 1713 and purified as part of rotavirus-like particles; also called RVA(WA) VP6; VP6(opt)
B1: binds.
